{
  "source": "paper PMC9101815",
  "about": "“Extracellular Matrix Biomimetic Hydrogels, Encapsulated with Stromal Cell-Derived Factor 1, Improve the Composition of Foetal Tissue Grafts in a Rodent Model of Parkinson’s Disease” (International Journal of Molecular Sciences, 2022)",
  "proteins": {"B1": {"name": "Fmoc-DDIKVAV self-assembling peptide (peptide)", "peptide": "Fmoc-DDIKVAV", "notes": "Whole peptide as printed: DDIKVAV with N-terminal Fmoc; Assembles into nanofibres and a hydrogel; also called SAP; IKVAV SAP; source: solid phase peptide synthesis"}},
  "target": "the molecule itself",
  "assay": "FTIR + circular dichroism + transmission electron microscopy; peptide alone; gelation by pH switch, 20 mg/mL stock; self-assembly under physiological conditions (pH 7.4) into nanofibrils and a hydrogel",
  "note": "Ends that are not written are not given here. * marks the point of attachment. Fmoc = O=C(OCC1c2ccccc2-c2ccccc21)*",
  "data": [
    {"protein": "B1", "values": [
      {"measurement": "binding result", "value": "binds"}
    ]}
  ]
}
